Assay [1] has as its target T1, SIRT3, endogenous (human, UniProt Q9NTG7 102-399, limits assumed).
T1 sequence (looked up): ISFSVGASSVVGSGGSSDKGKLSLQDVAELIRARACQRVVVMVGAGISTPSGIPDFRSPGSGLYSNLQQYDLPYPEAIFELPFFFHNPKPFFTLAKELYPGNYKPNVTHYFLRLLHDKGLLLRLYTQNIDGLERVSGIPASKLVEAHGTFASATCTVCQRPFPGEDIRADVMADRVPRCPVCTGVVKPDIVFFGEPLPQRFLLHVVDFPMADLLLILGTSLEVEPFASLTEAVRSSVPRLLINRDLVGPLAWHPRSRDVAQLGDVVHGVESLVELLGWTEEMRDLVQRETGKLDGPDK
Nature of the assay: immunoaffinity purification of SIRT4-EGFP from MRC5 mitochondria with mass spectrometry (IP-MS), SAINT scoring. On the procedure: Immunoaffinity Purification. SIRT4-EGFP and control EGFP immunoaffinity purifications (IPs) from MRC5 cells were performed using M270 Epoxy Dynabeads (Invitrogen, cat. #14302D) coupled with in-house generated rabbit anti-GFP polyclonal antibodies, as described previously²⁹. Pooled mitochondria from fractions 3 and 4 from the OptiPrep™ gradient were resuspended in 1 mL optimized Lysis Buffer (20 mM HEPES-KOH, pH 7.4, 0.1 M KOAc, 2 mM MgCl₂, 0.1% Tween-20, 1 μM ZnCl₂, 1 μM CaCl2)), with 0.6% Triton X-100, 200 mM NaCl, and 1/100 (v/v) protease inhibitor cocktail (Sigma, cat. #P8340). Lysed mitochondria were vortexed three times for 20 sec each, and mixed by rotation for 10 min at 4° C. Insoluble material (pellet) was removed by centrifugation at 5000×g for 10 min. The supernatant was collected and SIRT4-EGFP or free EGFP (negative control) was immunoisolated by incubation with 7 mg of GFP-coupled magnetic beads for 60 min at 4° C. […]
To investigate potential endogenous substrates of SIRT4, proteomics was used to define its endogenous mitochondrial protein interactions. […] Using direct fluorescence microscopy (co-localization with MitoTracker, FIG. 4) and density-based organelle fractionation (co-isolation with the mitochondrial COX IV, FIG. 1a), we confirmed its mitochondrial localization. […]

The target of assay [2] is T2, PDH component X (PDHX), endogenous (human, UniProt O00330 54-501).
T2 construct: Endogenous protein in mitochondrial lysates of MRC5 cells
T2 sequence (looked up): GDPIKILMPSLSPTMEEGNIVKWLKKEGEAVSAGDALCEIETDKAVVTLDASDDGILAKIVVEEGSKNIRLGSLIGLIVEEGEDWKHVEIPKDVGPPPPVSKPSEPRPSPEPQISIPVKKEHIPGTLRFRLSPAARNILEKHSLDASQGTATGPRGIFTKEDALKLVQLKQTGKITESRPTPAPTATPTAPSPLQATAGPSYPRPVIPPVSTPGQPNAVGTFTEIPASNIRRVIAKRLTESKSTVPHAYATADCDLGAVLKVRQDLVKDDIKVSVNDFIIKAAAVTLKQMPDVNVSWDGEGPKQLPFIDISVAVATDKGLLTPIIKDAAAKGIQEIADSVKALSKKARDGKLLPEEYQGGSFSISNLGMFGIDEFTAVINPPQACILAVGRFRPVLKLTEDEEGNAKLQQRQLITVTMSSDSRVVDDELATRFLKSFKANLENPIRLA
As to the kind of experiment: anti-GFP immunoaffinity purification from MRC5 mitochondria, western blot; confocal co-localization. The protocol:
(§1) Western Immunoblotting. 10 μg of protein from each fraction was resuspended in L SDS Sample Buffer. Each sample was subjected to SDS-PAGE, transferred to nitrocellulose membranes (GE Healthcare Life Sciences, cat. #45-000-929), and blocked in blocked in 5% (w/v) skim milk powder in Tris-buffered saline with 0.05% (v/v) Tween-20 (TBST) for 1 hr at RT. Membranes were probed according to manufacturer's instructions, with the following primary antibodies: mouse anti-GFP (Roche, cat. #11814460001), rabbit anti-LAMP1 (Abcam, cat. #ab24170), rabbit anti-COXIV (Cell Signaling Technology, cat. #4844), rabbit anti-DLAT (Santa Cruz Biotechnology, cat. #sc-32925), or rabbit anti-PDHX (Santa Cruz Biotechnology, sc-98752), for 1 h in TBST, followed by 1 hr incubation in corresponding horseradish peroxidase (HRP)-conjugated secondary antibodies (Jackson ImmunoResearch Laboratories). All antibody incubations were carried out at RT with gentle agitation, and blots washed three times with TBST for 10 min after each incubation. Immuno-targets were detected using ECL (GE Healthcare Life Sciences, cat. #RPN2106).
(§2) Immunoaffinity Purification. SIRT4-EGFP and control EGFP immunoaffinity purifications (IPs) from MRC5 cells were performed using M270 Epoxy Dynabeads (Invitrogen, cat. #14302D) coupled with in-house generated rabbit anti-GFP polyclonal antibodies, as described previously²⁹. […]

The target in assay [3] is T3, dihydrolipoyllysine acetyltransferase (DLAT), endogenous (human, UniProt P10515 87-647, lipoyl-lysine at K132 and K259).
T3 construct: Endogenous protein in mitochondrial lysates of MRC5 cells; also called E2 component of the PDHC
T3 sequence (looked up): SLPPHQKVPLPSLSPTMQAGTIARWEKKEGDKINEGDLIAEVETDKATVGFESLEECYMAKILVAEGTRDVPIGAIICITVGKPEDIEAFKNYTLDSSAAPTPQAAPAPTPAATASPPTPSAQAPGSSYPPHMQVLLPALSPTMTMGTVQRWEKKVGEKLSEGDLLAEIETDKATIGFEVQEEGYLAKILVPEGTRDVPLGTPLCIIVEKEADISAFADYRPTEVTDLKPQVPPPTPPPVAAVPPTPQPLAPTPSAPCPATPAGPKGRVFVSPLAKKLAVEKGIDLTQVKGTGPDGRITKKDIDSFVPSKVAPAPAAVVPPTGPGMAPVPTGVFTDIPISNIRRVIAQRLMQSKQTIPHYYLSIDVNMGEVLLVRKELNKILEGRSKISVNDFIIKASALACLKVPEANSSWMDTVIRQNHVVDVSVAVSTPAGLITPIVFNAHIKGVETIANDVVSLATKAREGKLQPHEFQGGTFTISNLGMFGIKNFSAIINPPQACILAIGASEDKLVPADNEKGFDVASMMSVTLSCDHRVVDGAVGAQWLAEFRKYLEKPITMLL
The description is as above. On the procedure: as §1, §2

In assay [4] the target is T3, dihydrolipoyllysine acetyltransferase …. As to the kind of experiment: reciprocal immunoaffinity purification of DLAT from wild-type fibroblasts, western blot (FIG. 1F).

B1: SIRT4-EGFP (enzyme)
chain: IGLFVPASPPLDPEKVKELQRFITLSKRLLVMTGAGISTESGIPDYRSEKVGLYARTDRRPIQHGDFVRSAPIRQRYWARNFVGWPQFSSHQPNPAHWALSTWEKLGKLYWLVTQNVDALHTKAGSRRLTELHGCMDRVLCLDCGEQTPRGVLQERFQVLNPTWSAEAHGLAPDGDVFLSEEQVRSFQVPTCVQCGGHLKPDVVFFGDTVNPDKVDFVHKRVKEADSLLVVGSSLQVYSGYRFILTAWEKKLPIAILNIGPTRSDDLACLKLNSRCGELLPLIDPC
notes: Stably expressed in MRC5 fibroblasts and immunoisolated from mitochondrial lysate with anti-GFP beads; also called SIRT4-OE; not shown: EGFP (enhanced green fluorescent protein, ORF of pEGFP-N1), fused C-terminal of SIRT4; linker
As to B1, the values for the binding result in assay [1], in assay [2] and in assay [3] were “no binding”, “binds” and “binds”, respectively.

B2: endogenous SIRT4 (enzyme)
chain: B1 chain
notes: Endogenous SIRT4 of wild-type MRC5 fibroblasts
On to B2, for which the binding result in assay [4] is “binds”.

These data come from patent US20210318312A1 (TRUSTEES OF PRINCETON UNIVERSITY, published 2021).
